Source: paper PMC12102759 (2025)

B1: AMOTL2 peptide 66-81 (Angiomotin-like protein 2), 16-mer library wild type / TNKS ANK (TNKS 12 ANK repeats, residues 174-649) (parent complex)
chain 1: LQQATRQEPQGQEHQG
chain 2: TGVPAVSGALRELLEACRNGDVSRVKRLVDAANVNAKDMAGRKSSPLHFAAGFGRKDVVEHLLQMGANVHARDDGGLIPLHNACSFGHAEVVSLLLCQGADPNARDNWNYTPLHEAAIKGKIDVCIVLLQHGADPNIRNTDGKSALDLADPSAKAVLTGEYKKDELLEAARSGNEEKLMALLTPLNVNCHASDGRKSTPLHLAAGYNRVRIVQLLLQHGADVHAKDKGGLVPLHNACSYGHYEVTELLLKHGACVNAMDLWQFTPLHEAASKNRVEVCSLLLSHGADPTLVNCHGKSAVDMAPTPELRERLTYEFKGHSLLQAAREADLAKVKKTLALEIINFKQPQSHETALHCAVASLHPKRKQVTELLLRKGANVNEKNKDFMTPLHVAAERAHNDVMEVLHKHGAKMNALDTLGQTALHRAALAGHLQTCRLLLSYGSDPSIISLQGFTAAQMGNEAVQQILSESTPIRTSD

Variants of: B1
Test: proteomic peptide phage display deep mutational scan (ProP-PD DMS): M13 P8 16-mer library selected against immobilised GST-tagged bait for four days (rounds), NGS of the eluted pools per day and pseudo-replica; bait immobilised on MaxiSorp plates (10 µg), library pre-cleared on GST, 2 h binding at 4 °C, five washes; one round per day, days 1-4; value from days 2 and 3
With chain 1 Q7W the screen value was 0.000185 average fractional NGS count over selection days 2 and 3 (reads of this peptide / all reads for the bait, averaged over …. In the case of chain 1 Q7T, the screen value is reported as 0.000305 average fractional NGS count over selection days 2 and 3 (reads of this peptide / all reads for the bait, averaged over …. For chain 1 E8F, the screen value was 0.00124 average fractional NGS count over selection days 2 and 3 (reads of this peptide / all reads for the bait, averaged over …. For chain 1 E8D, the screen value was 0.000313 average fractional NGS count over selection days 2 and 3 (reads of this peptide / all reads for the bait, averaged over …. chain 1 E8T was tested, and the screen value was 0.00026 average fractional NGS count over selection days 2 and 3 (reads of this peptide / all reads for the bait, averaged over …. With chain 1 E8P the screen value was 0.00018 average fractional NGS count over selection days 2 and 3 (reads of this peptide / all reads for the bait, averaged over …. For chain 1 E8A, the screen value was 0.000174 average fractional NGS count over selection days 2 and 3 (reads of this peptide / all reads for the bait, averaged over …. With chain 1 E8S the screen value was 0.000226 average fractional NGS count over selection days 2 and 3 (reads of this peptide / all reads for the bait, averaged over …. With chain 1 E8V the screen value was 0.000436 average fractional NGS count over selection days 2 and 3 (reads of this peptide / all reads for the bait, averaged over …. In the case of chain 1 E8M, the screen value is reported as 0.000135 average fractional NGS count over selection days 2 and 3 (reads of this peptide / all reads for the bait, averaged over …. For chain 1 E8W, the screen value was 0.000174 average fractional NGS count over selection days 2 and 3 (reads of this peptide / all reads for the bait, averaged over …. For chain 1 E8Q, the screen value was 0.000434 average fractional NGS count over selection days 2 and 3 (reads of this peptide / all reads for the bait, averaged over …. With chain 1 E8L the screen value was 0.000201 average fractional NGS count over selection days 2 and 3 (reads of this peptide / all reads for the bait, averaged over …. With chain 1 Q15S the screen value was 0.00112 average fractional NGS count over selection days 2 and 3 (reads of this peptide / all reads for the bait, averaged over …. With chain 1 Q15E the screen value was 0.000569 average fractional NGS count over selection days 2 and 3 (reads of this peptide / all reads for the bait, averaged over …. For chain 1 Q15W, the screen value was 0.000288 average fractional NGS count over selection days 2 and 3 (reads of this peptide / all reads for the bait, averaged over …. In the case of chain 1 Q15L, the screen value is reported as 0.0017 average fractional NGS count over selection days 2 and 3 (reads of this peptide / all reads for the bait, averaged over …. With chain 1 Q15I the screen value was 0.00255 average fractional NGS count over selection days 2 and 3 (reads of this peptide / all reads for the bait, averaged over …. In the case of chain 1 Q15A, the screen value is reported as 0.00403 average fractional NGS count over selection days 2 and 3 (reads of this peptide / all reads for the bait, averaged over …. For chain 1 Q15P, the screen value was 0.000799 average fractional NGS count over selection days 2 and 3 (reads of this peptide / all reads for the bait, averaged over …. With chain 1 Q15T the screen value was 0.000883 average fractional NGS count over selection days 2 and 3 (reads of this peptide / all reads for the bait, averaged over …. With chain 1 Q15V the screen value was 0.000269 average fractional NGS count over selection days 2 and 3 (reads of this peptide / all reads for the bait, averaged over …. In the case of chain 1 Q15M, the screen value is reported as 0.00112 average fractional NGS count over selection days 2 and 3 (reads of this peptide / all reads for the bait, averaged over …. With chain 1 Q15H the screen value was 0.00187 average fractional NGS count over selection days 2 and 3 (reads of this peptide / all reads for the bait, averaged over …. chain 1 Q15G was tested, and the screen value was 0.000723 average fractional NGS count over selection days 2 and 3 (reads of this peptide / all reads for the bait, averaged over …. In the case of chain 1 Q15N, the screen value is reported as 0.00022 average fractional NGS count over selection days 2 and 3 (reads of this peptide / all reads for the bait, averaged over …. chain 1 Q15Y was tested, and the screen value was 0.00994 average fractional NGS count over selection days 2 and 3 (reads of this peptide / all reads for the bait, averaged over …. chain 1 L1G was tested, and the screen value was 0.000254 average fractional NGS count over selection days 2 and 3 (reads of this peptide / all reads for the bait, averaged over …. With chain 1 L1D the screen value was 0.00194 average fractional NGS count over selection days 2 and 3 (reads of this peptide / all reads for the bait, averaged over …. For chain 1 L1S, the screen value was 0.000161 average fractional NGS count over selection days 2 and 3 (reads of this peptide / all reads for the bait, averaged over …. In the case of chain 1 L1Y, the screen value is reported as 0.000392 average fractional NGS count over selection days 2 and 3 (reads of this peptide / all reads for the bait, averaged over …. In the case of chain 1 L1W, the screen value is reported as 0.000562 average fractional NGS count over selection days 2 and 3 (reads of this peptide / all reads for the bait, averaged over …. With chain 1 L1N the screen value was 0.000133 average fractional NGS count over selection days 2 and 3 (reads of this peptide / all reads for the bait, averaged over …. For chain 1 L1I, the screen value was 0.000531 average fractional NGS count over selection days 2 and 3 (reads of this peptide / all reads for the bait, averaged over …. chain 1 L1V was tested, and the screen value was 0.00393 average fractional NGS count over selection days 2 and 3 (reads of this peptide / all reads for the bait, averaged over …. In the case of chain 1 L1P, the screen value is reported as 0.000936 average fractional NGS count over selection days 2 and 3 (reads of this peptide / all reads for the bait, averaged over …. chain 1 L1Q was tested, and the screen value was 0.00176 average fractional NGS count over selection days 2 and 3 (reads of this peptide / all reads for the bait, averaged over …. With chain 1 L1H the screen value was 0.00276 average fractional NGS count over selection days 2 and 3 (reads of this peptide / all reads for the bait, averaged over …. In the case of chain 1 L1M, the screen value is reported as 0.000626 average fractional NGS count over selection days 2 and 3 (reads of this peptide / all reads for the bait, averaged over …. chain 1 L1T was tested, and the screen value was 0.000919 average fractional NGS count over selection days 2 and 3 (reads of this peptide / all reads for the bait, averaged over …. With chain 1 E13H the screen value was 0.000694 average fractional NGS count over selection days 2 and 3 (reads of this peptide / all reads for the bait, averaged over …. With chain 1 E13Q the screen value was 0.000235 average fractional NGS count over selection days 2 and 3 (reads of this peptide / all reads for the bait, averaged over …. With chain 1 E13I the screen value was 0.000226 average fractional NGS count over selection days 2 and 3 (reads of this peptide / all reads for the bait, averaged over …. With chain 1 E13M the screen value was 0.000514 average fractional NGS count over selection days 2 and 3 (reads of this peptide / all reads for the bait, averaged over …. In the case of chain 1 E13L, the screen value is reported as 0.000144 average fractional NGS count over selection days 2 and 3 (reads of this peptide / all reads for the bait, averaged over …. With chain 1 E13V the screen value was 0.00131 average fractional NGS count over selection days 2 and 3 (reads of this peptide / all reads for the bait, averaged over …. chain 1 E13S was tested, and the screen value was 0.000101 average fractional NGS count over selection days 2 and 3 (reads of this peptide / all reads for the bait, averaged over …. For chain 1 E13A, the screen value was 0.000224 average fractional NGS count over selection days 2 and 3 (reads of this peptide / all reads for the bait, averaged over …. With chain 1 Q3Y the screen value was 0.000305 average fractional NGS count over selection days 2 and 3 (reads of this peptide / all reads for the bait, averaged over …. For chain 1 Q3G, the screen value was 0.000192 average fractional NGS count over selection days 2 and 3 (reads of this peptide / all reads for the bait, averaged over …. For chain 1 Q3T, the screen value was 0.000102 average fractional NGS count over selection days 2 and 3 (reads of this peptide / all reads for the bait, averaged over …. In the case of chain 1 Q3S, the screen value is reported as 0.000813 average fractional NGS count over selection days 2 and 3 (reads of this peptide / all reads for the bait, averaged over …. In the case of chain 1 Q3V, the screen value is reported as 0.000386 average fractional NGS count over selection days 2 and 3 (reads of this peptide / all reads for the bait, averaged over …. With chain 1 Q3P the screen value was 0.000624 average fractional NGS count over selection days 2 and 3 (reads of this peptide / all reads for the bait, averaged over …. In the case of chain 1 Q3L, the screen value is reported as 0.000335 average fractional NGS count over selection days 2 and 3 (reads of this peptide / all reads for the bait, averaged over …. chain 1 Q3N was tested, and the screen value was 0.000319 average fractional NGS count over selection days 2 and 3 (reads of this peptide / all reads for the bait, averaged over …. For chain 1 Q3W, the screen value was 0.000779 average fractional NGS count over selection days 2 and 3 (reads of this peptide / all reads for the bait, averaged over …. With chain 1 Q3F the screen value was 0.000606 average fractional NGS count over selection days 2 and 3 (reads of this peptide / all reads for the bait, averaged over …. chain 1 Q3D was tested, and the screen value was 0.000274 average fractional NGS count over selection days 2 and 3 (reads of this peptide / all reads for the bait, averaged over …. With chain 1 Q3H the screen value was 0.00741 average fractional NGS count over selection days 2 and 3 (reads of this peptide / all reads for the bait, averaged over …. For chain 1 Q3A, the screen value was 0.0023 average fractional NGS count over selection days 2 and 3 (reads of this peptide / all reads for the bait, averaged over …. In the case of chain 1 P9A, the screen value is reported as 0.000163 average fractional NGS count over selection days 2 and 3 (reads of this peptide / all reads for the bait, averaged over …. In the case of chain 1 P9T, the screen value is reported as 0.000277 average fractional NGS count over selection days 2 and 3 (reads of this peptide / all reads for the bait, averaged over …. With chain 1 G11T the screen value was 0.000177 average fractional NGS count over selection days 2 and 3 (reads of this peptide / all reads for the bait, averaged over …. In the case of chain 1 T5I, the screen value is reported as 0.000401 average fractional NGS count over selection days 2 and 3 (reads of this peptide / all reads for the bait, averaged over …. chain 1 T5H was tested, and the screen value was 0.00114 average fractional NGS count over selection days 2 and 3 (reads of this peptide / all reads for the bait, averaged over …. In the case of chain 1 T5G, the screen value is reported as 0.000124 average fractional NGS count over selection days 2 and 3 (reads of this peptide / all reads for the bait, averaged over …. With chain 1 T5D the screen value was 0.000166 average fractional NGS count over selection days 2 and 3 (reads of this peptide / all reads for the bait, averaged over …. With chain 1 T5Y the screen value was 0.00023 average fractional NGS count over selection days 2 and 3 (reads of this peptide / all reads for the bait, averaged over …. chain 1 T5M was tested, and the screen value was 0.000134 average fractional NGS count over selection days 2 and 3 (reads of this peptide / all reads for the bait, averaged over …. For chain 1 T5L, the screen value was 0.00104 average fractional NGS count over selection days 2 and 3 (reads of this peptide / all reads for the bait, averaged over …. With chain 1 T5Q the screen value was 0.00116 average fractional NGS count over selection days 2 and 3 (reads of this peptide / all reads for the bait, averaged over …. For chain 1 T5W, the screen value was 0.000715 average fractional NGS count over selection days 2 and 3 (reads of this peptide / all reads for the bait, averaged over …. In the case of chain 1 T5F, the screen value is reported as 0.00053 average fractional NGS count over selection days 2 and 3 (reads of this peptide / all reads for the bait, averaged over …. With chain 1 T5V the screen value was 0.00996 average fractional NGS count over selection days 2 and 3 (reads of this peptide / all reads for the bait, averaged over ….
